Measured values published in paper doi:10.64898/2025.12.03.691989 (bioRxiv, 2025).

How the values were obtained:
[1] = target: T1, human UBA6 (full-length, amino acid residues 1-1052) (human, UniProt A0AVT1 1-1052); assay: MST
T1 sequence (looked up): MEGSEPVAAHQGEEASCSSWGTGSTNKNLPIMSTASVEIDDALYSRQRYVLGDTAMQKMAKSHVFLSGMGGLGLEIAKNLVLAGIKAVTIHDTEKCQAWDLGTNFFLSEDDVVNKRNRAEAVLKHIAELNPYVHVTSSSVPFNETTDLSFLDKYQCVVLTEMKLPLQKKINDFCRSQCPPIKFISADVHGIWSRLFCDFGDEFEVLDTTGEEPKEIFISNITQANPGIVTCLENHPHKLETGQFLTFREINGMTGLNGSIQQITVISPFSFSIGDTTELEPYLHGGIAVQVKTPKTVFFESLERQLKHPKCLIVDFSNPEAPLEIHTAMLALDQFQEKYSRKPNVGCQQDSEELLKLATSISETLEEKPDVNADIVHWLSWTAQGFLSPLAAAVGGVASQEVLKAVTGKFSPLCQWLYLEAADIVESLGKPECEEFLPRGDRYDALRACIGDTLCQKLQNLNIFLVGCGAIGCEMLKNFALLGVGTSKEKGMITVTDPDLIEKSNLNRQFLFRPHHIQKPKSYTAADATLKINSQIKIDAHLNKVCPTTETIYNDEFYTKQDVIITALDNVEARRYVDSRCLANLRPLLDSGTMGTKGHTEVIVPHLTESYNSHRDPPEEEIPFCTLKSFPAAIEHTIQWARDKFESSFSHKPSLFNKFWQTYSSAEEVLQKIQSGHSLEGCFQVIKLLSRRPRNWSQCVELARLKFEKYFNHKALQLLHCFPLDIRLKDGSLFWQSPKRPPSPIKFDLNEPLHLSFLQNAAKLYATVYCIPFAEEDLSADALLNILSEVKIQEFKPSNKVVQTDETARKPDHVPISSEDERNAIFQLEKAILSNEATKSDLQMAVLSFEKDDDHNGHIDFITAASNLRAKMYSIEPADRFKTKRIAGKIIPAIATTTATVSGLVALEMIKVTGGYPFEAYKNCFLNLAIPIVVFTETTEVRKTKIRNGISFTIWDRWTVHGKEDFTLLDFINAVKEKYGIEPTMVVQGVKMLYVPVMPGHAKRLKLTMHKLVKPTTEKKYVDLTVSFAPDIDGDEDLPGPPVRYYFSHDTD

human UBA1 = target: T2, human UBA1 (human, UniProt P22314 1-1058); assay: MST
T2 sequence (looked up): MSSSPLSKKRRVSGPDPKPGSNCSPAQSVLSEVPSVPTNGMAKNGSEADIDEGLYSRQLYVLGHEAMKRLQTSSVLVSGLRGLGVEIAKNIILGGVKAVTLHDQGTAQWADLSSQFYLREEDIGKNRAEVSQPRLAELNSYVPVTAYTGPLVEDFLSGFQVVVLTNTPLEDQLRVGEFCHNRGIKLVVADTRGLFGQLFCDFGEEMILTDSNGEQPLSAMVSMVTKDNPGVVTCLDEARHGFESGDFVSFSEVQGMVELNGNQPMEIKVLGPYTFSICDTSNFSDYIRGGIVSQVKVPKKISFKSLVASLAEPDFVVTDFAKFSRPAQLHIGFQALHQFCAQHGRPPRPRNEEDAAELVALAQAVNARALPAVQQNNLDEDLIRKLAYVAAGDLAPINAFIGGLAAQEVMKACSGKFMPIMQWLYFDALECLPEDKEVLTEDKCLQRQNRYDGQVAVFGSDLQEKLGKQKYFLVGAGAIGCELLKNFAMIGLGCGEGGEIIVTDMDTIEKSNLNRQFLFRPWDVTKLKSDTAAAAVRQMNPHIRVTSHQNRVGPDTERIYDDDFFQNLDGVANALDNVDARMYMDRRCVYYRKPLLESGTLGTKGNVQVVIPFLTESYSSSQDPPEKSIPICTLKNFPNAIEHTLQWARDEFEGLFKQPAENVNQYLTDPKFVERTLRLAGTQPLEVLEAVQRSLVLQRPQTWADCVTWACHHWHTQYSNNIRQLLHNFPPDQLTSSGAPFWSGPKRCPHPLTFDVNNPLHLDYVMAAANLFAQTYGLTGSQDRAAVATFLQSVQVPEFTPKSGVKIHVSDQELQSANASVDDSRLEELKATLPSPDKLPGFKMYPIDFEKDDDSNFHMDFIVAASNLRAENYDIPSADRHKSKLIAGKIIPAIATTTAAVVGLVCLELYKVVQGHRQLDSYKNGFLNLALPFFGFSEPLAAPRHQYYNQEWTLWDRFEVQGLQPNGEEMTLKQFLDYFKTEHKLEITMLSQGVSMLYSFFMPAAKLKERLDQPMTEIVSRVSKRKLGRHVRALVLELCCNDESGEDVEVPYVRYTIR

B1: BIRC6 UBC domain (amino acid residues 4520-4857) (domain or fragment)
chain: not shown
Q: Which Kd [1] does the source give for B1 here?
A: 23 µM

Q: What about the Kd (human UBA1) of the same binder?
A: 13 µM
